Test results from patent US20260337278 (published 2026).
Read-outs that look alike come from different tables or passages of the source.

B1: SI-95X63 (antibody)
chain 1: not shown
chain 2: DILMTQSPSSMSVSLGDTVSITCHSSQDINSNIGWLQQRPGKSFKGLIYHGTNLDDEVPSRFSGSGSGADYSLTISSLESEDFADYYCVQYAQFPWTFGGGTKLEIKRTVAAPSVFIFPPSDEQLKSGTASVVCLLNNFYPREAKVQWKVDNALQSGNSQESVTEQDSKDSTYSLSSTLTLSKADYEKHKVYACEVTHQGLSSPVTKSFNRGEC
B2: SI-95X6 (antibody)
chain 1: not shown
chain 2: DILMTQSPSSMSVSLGDTVSITCHSSQDINSNIGWLQQRPGKSFKGLIYHGTNLDDEVPSRFSGSGSGADYSLTISSLESEDFADYYCVQYAQFPWTFGGGTKLEIKRTVAAPSVFIFPPSDEQLKSGTASVVCLLNNFYPREAKVQWKVDNALQSGNSQESVTEQDSKDSTYSLSSTLTLSKADYEKHKVYACEVTHQGLSSPVTKSFNRGEC
B3: SI-95X10 (antibody)
chain 1: not shown
chain 2: DILMTQSPSSMSVSLGDTVSITCHSSQDINSNIGWLQQRPGKSFKGLIYHGTNLDDEVPSRFSGSGSGADYSLTISSLESEDFADYYCVQYAQFPWTFGGGTKLEIKRTVAAPSVFIFPPSDEQLKSGTASVVCLLNNFYPREAKVQWKVDNALQSGNSQESVTEQDSKDSTYSLSSTLTLSKADYEKHKVYACEVTHQGLSSPVTKSFNRGEC
B4: SI-95X64 (antibody)
chain 1: not shown
chain 2: DILMTQSPSSMSVSLGDTVSITCHSSQDINSNIGWLQQRPGKSFKGLIYHGTNLDDEVPSRFSGSGSGADYSLTISSLESEDFADYYCVQYAQFPWTFGGGTKLEIKRTVAAPSVFIFPPSDEQLKSGTASVVCLLNNFYPREAKVQWKVDNALQSGNSQESVTEQDSKDSTYSLSSTLTLSKADYEKHKVYACEVTHQGLSSPVTKSFNRGEC
B5: SI-95X7 (antibody)
chain 1: not shown
chain 2: DILMTQSPSSMSVSLGDTVSITCHSSQDINSNIGWLQQRPGKSFKGLIYHGTNLDDEVPSRFSGSGSGADYSLTISSLESEDFADYYCVQYAQFPWTFGGGTKLEIKRTVAAPSVFIFPPSDEQLKSGTASVVCLLNNFYPREAKVQWKVDNALQSGNSQESVTEQDSKDSTYSLSSTLTLSKADYEKHKVYACEVTHQGLSSPVTKSFNRGEC
B6: SI-95X4 (antibody)
chain 1: not shown
chain 2: DILMTQSPSSMSVSLGDTVSITCHSSQDINSNIGWLQQRPGKSFKGLIYHGTNLDDEVPSRFSGSGSGADYSLTISSLESEDFADYYCVQYAQFPWTFGGGTKLEIKRTVAAPSVFIFPPSDEQLKSGTASVVCLLNNFYPREAKVQWKVDNALQSGNSQESVTEQDSKDSTYSLSSTLTLSKADYEKHKVYACEVTHQGLSSPVTKSFNRGEC
B7: SI-95X8 (antibody)
chain 1: not shown
chain 2: DILMTQSPSSMSVSLGDTVSITCHSSQDINSNIGWLQQRPGKSFKGLIYHGTNLDDEVPSRFSGSGSGADYSLTISSLESEDFADYYCVQYAQFPWTFGGGTKLEIKRTVAAPSVFIFPPSDEQLKSGTASVVCLLNNFYPREAKVQWKVDNALQSGNSQESVTEQDSKDSTYSLSSTLTLSKADYEKHKVYACEVTHQGLSSPVTKSFNRGEC
B8: SI-95X9 (antibody)
chain 1: not shown
chain 2: DILMTQSPSSMSVSLGDTVSITCHSSQDINSNIGWLQQRPGKSFKGLIYHGTNLDDEVPSRFSGSGSGADYSLTISSLESEDFADYYCVQYAQFPWTFGGGTKLEIKRTVAAPSVFIFPPSDEQLKSGTASVVCLLNNFYPREAKVQWKVDNALQSGNSQESVTEQDSKDSTYSLSSTLTLSKADYEKHKVYACEVTHQGLSSPVTKSFNRGEC
B9: SI-95X5 (antibody)
chain 1: not shown
chain 2: DILMTQSPSSMSVSLGDTVSITCHSSQDINSNIGWLQQRPGKSFKGLIYHGTNLDDEVPSRFSGSGSGADYSLTISSLESEDFADYYCVQYAQFPWTFGGGTKLEIKRTVAAPSVFIFPPSDEQLKSGTASVVCLLNNFYPREAKVQWKVDNALQSGNSQESVTEQDSKDSTYSLSSTLTLSKADYEKHKVYACEVTHQGLSSPVTKSFNRGEC
B10: SI-95X12 (antibody)
chain 1: not shown
chain 2: QVQLQQSGAEVKKPGSSVKVSCKASGYTFTNYYIYWVRQAPGQGLEWIGGINPTSGGSNFNEKFKTRVTITADESSTTAYMELSSLRSEDTAFYFCTRQGLWFDSDGRGFDFWGQGTTVTVSSGGGGSGGGGSGGGGSDIQMTQSPSSLSASVGDRVTITCRSSQNIVHSNGNTYLDWYQQTPGKAPKLLIYKVSNRFSGVPSRFSGSGSGTDFTFTISSLQPEDIATYYCFQYSHVPWTFGQGTKLQITGGGGSGSGSGGGGGSGGGGSGGGGSDILMTQSPSSMSVSLGDTVSITCHSSQDINSNIGWLQQRPGKSFKGLIYHGTNLDDEVPSRFSGSGSGADYSLTISSLESEDFADYYCVQYAQFPWTFGGGTKLEIKRTVAAPSVFIFPPSDEQLKSGTASVVCLLNNFYPREAKVQWKVDNALQSGNSQESVTEQDSKDSTYSLSSTLTLSKADYEKHKVYACEVTHQGLSSPVTKSFNRGEC
B11: SI-95X13 (antibody)
chain 1: not shown
chain 2: QVQLQQSGAEVKKPGSSVKVSCKASGYTFTNYYIYWVRQAPGQGLEWIGGINPTSGGSNFNEKFKTRVTITADESSTTAYMELSSLRSEDTAFYFCTRQGLWFDSDGRGFDFWGQGTTVTVSSGGGGSGGGGSGGGGSDIQMTQSPSSLSASVGDRVTITCRSSQNIVHSNGNTYLDWYQQTPGKAPKLLIYKVSNRFSGVPSRFSGSGSGTDFTFTISSLQPEDIATYYCFQYSHVPWTFGQGTKLQITGGGGSGGGGSGSGSGGGGGSGGGGSGGGGSDILMTQSPSSMSVSLGDTVSITCHSSQDINSNIGWLQQRPGKSFKGLIYHGTNLDDEVPSRFSGSGSGADYSLTISSLESEDFADYYCVQYAQFPWTFGGGTKLEIKRTVAAPSVFIFPPSDEQLKSGTASVVCLLNNFYPREAKVQWKVDNALQSGNSQESVTEQDSKDSTYSLSSTLTLSKADYEKHKVYACEVTHQGLSSPVTKSFNRGEC
B12: SI-95X11 (antibody)
chain 1: not shown
chain 2: QVQLQQSGAEVKKPGSSVKVSCKASGYTFTNYYIYWVRQAPGQGLEWIGGINPTSGGSNFNEKFKTRVTITADESSTTAYMELSSLRSEDTAFYFCTRQGLWFDSDGRGFDFWGQGTTVTVSSGGGGSGGGGSGGGGSDIQMTQSPSSLSASVGDRVTITCRSSQNIVHSNGNTYLDWYQQTPGKAPKLLIYKVSNRFSGVPSRFSGSGSGTDFTFTISSLQPEDIATYYCFQYSHVPWTFGQGTKLQITSGSGSGGGGGSGGGGSGGGGSDILMTQSPSSMSVSLGDTVSITCHSSQDINSNIGWLQQRPGKSFKGLIYHGTNLDDEVPSRFSGSGSGADYSLTISSLESEDFADYYCVQYAQFPWTFGGGTKLEIKRTVAAPSVFIFPPSDEQLKSGTASVVCLLNNFYPREAKVQWKVDNALQSGNSQESVTEQDSKDSTYSLSSTLTLSKADYEKHKVYACEVTHQGLSSPVTKSFNRGEC
B13: SI-95X15 (antibody)
chain 1: not shown
chain 2: DIQMTQSPSSLSASVGDRVTITCRSSQNIVHSNGNTYLDWYQQTPGKAPKLLIYKVSNRFSGVPSRFSGSGSGTDFTFTISSLQPEDIATYYCFQYSHVPWTFGQGTKLQITGGGGSGGGGSGGGGSQVQLQQSGAEVKKPGSSVKVSCKASGYTFTNYYIYWVRQAPGQGLEWIGGINPTSGGSNFNEKFKTRVTITADESSTTAYMELSSLRSEDTAFYFCTRQGLWFDSDGRGFDFWGQGTTVTVSSGGGGSGSGSGGGGGSGGGGSGGGGSDILMTQSPSSMSVSLGDTVSITCHSSQDINSNIGWLQQRPGKSFKGLIYHGTNLDDEVPSRFSGSGSGADYSLTISSLESEDFADYYCVQYAQFPWTFGGGTKLEIKRTVAAPSVFIFPPSDEQLKSGTASVVCLLNNFYPREAKVQWKVDNALQSGNSQESVTEQDSKDSTYSLSSTLTLSKADYEKHKVYACEVTHQGLSSPVTKSFNRGEC
B14: SI-95X16 (antibody)
chain 1: not shown
chain 2: DIQMTQSPSSLSASVGDRVTITCRSSQNIVHSNGNTYLDWYQQTPGKAPKLLIYKVSNRFSGVPSRFSGSGSGTDFTFTISSLQPEDIATYYCFQYSHVPWTFGQGTKLQITGGGGSGGGGSGGGGSQVQLQQSGAEVKKPGSSVKVSCKASGYTFTNYYIYWVRQAPGQGLEWIGGINPTSGGSNFNEKFKTRVTITADESSTTAYMELSSLRSEDTAFYFCTRQGLWFDSDGRGFDFWGQGTTVTVSSGGGGSGGGGSGSGSGGGGGSGGGGSGGGGSDILMTQSPSSMSVSLGDTVSITCHSSQDINSNIGWLQQRPGKSFKGLIYHGTNLDDEVPSRFSGSGSGADYSLTISSLESEDFADYYCVQYAQFPWTFGGGTKLEIKRTVAAPSVFIFPPSDEQLKSGTASVVCLLNNFYPREAKVQWKVDNALQSGNSQESVTEQDSKDSTYSLSSTLTLSKADYEKHKVYACEVTHQGLSSPVTKSFNRGEC
B15: SI-95X14 (antibody)
chain 1: not shown
chain 2: DIQMTQSPSSLSASVGDRVTITCRSSQNIVHSNGNTYLDWYQQTPGKAPKLLIYKVSNRFSGVPSRFSGSGSGTDFTFTISSLQPEDIATYYCFQYSHVPWTFGQGTKLQITGGGGSGGGGSGGGGSQVQLQQSGAEVKKPGSSVKVSCKASGYTFTNYYIYWVRQAPGQGLEWIGGINPTSGGSNFNEKFKTRVTITADESSTTAYMELSSLRSEDTAFYFCTRQGLWFDSDGRGFDFWGQGTTVTVSSSGSGSGGGGGSGGGGSGGGGSDILMTQSPSSMSVSLGDTVSITCHSSQDINSNIGWLQQRPGKSFKGLIYHGTNLDDEVPSRFSGSGSGADYSLTISSLESEDFADYYCVQYAQFPWTFGGGTKLEIKRTVAAPSVFIFPPSDEQLKSGTASVVCLLNNFYPREAKVQWKVDNALQSGNSQESVTEQDSKDSTYSLSSTLTLSKADYEKHKVYACEVTHQGLSSPVTKSFNRGEC
B16: SI-95X46 (antibody)
chain 1: not shown
chain 2: EIVLTQSPSTLSVSPGERATFSCRASQSIGTNIHWYQQKPGKPPRLLIKYASESISGIPDRFSGSGSGTEFTLTISSVQSEDFAVYYCQQNNNWPTTFGPGTKLTVLRTVAAPSVFIFPPSDEQLKSGTASVVCLLNNFYPREAKVQWKVDNALQSGNSQESVTEQDSKDSTYSLSSTLTLSKADYEKHKVYACEVTHQGLSSPVTKSFNRGEC
B17: SI-95X51 (antibody)
chain 1: not shown
chain 2: DIVMTQSPSSVSLSLGDRVTITCHSSQDINSNIGWLQQKPGKAFKGLIYHGTNLDDGVPSRFSGSGSGADYTLTISSLQAEDFATYYCVQYAQFPWTFGPGTKLEIKRTVAAPSVFIFPPSDEQLKSGTASVVCLLNNFYPREAKVQWKVDNALQSGNSQESVTEQDSKDSTYSLSSTLTLSKADYEKHKVYACEVTHQGLSSPVTKSFNRGEC

Key:
Assay in all cases: BLI
[1] = biological target: EGFR (wild-type, His-tagged or biotinylated) (human, UniProt P00533)
[2] = biological target: T1, EGFRvIII (human, UniProt P00533)
[3] = biological target: T1, EGFRvIII; remark: listed apart in the source

Binder | Kd [1] | Kd [2] | Kd [3]
B1 | 0.497 nM | 0.493 nM | –
B2 | – | – | 6.35 nM
B3 | – | – | 7 nM
B4 | 2.31 nM | 0.638 nM | –
B5 | – | – | 8.41 nM
B6 | – | – | 5.52 nM
B7 | – | – | 6.97 nM
B8 | – | – | 6.16 nM
B9 | – | – | 7.94 nM
B10 | – | – | 7.8 nM
B11 | – | – | 8.77 nM
B12 | – | – | 4.87 nM
B13 | – | – | 0.175 nM
B14 | – | – | 19.4 nM
B15 | – | – | 0.428 nM
B16 | 7.3 nM | 0.358 nM | –
B17 | 1.81 nM | 1.16 nM | –
